Changes are numbered by the printed parent chain. In names and notes the source's numbering stands.
T1: murine CD16-2 (Sino Biological Inc., 50036-M27H-B) (murine, UniProt A0A0B4J1G0 21-203, Probably biotinylated on the vendor's tag (catalogue suffix -B); not carried in the letters)
T1 construct: Purchased reagent; Biotinylation is only implied by 'a similar experimental procedure as described above'; also called mCD16-2
T1 sequence: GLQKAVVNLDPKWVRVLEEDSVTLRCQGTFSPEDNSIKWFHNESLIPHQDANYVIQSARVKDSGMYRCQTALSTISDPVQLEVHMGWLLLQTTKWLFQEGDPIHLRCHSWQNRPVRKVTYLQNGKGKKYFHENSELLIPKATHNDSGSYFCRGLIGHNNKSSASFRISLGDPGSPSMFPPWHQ

B1: Fc-Abdeg-POT (other)
chain: DKTHTCPPCPAPELLGGPSVFLFPPKPKDTLYITREPEVTCVVVDVSHEDPEVKFNWYVDGVEVHNAKTKPREEQYNSTYRVVSVLTVLHQDWLNGKEYKCKVSNKALPAPIEKTISKAKGQPREPQVYTLPPSRDELTKNQVSLTCLVKGFYPSDIAVEWESNGQPENNYKTTPPVLDSDGSFFLYSKLTVDKSRWQQGNVFSCSVMHEALKFHYTQKSLSLSPGK
modifications: afucosylated (defucosylated) N-linked glycan
notes: also called afucosylated form of Fc-Abdeg; afucosylated variant
B2: Fc-Abdeg-S239D/I332E (other)
chain: B1 chain with S19D, I112E
notes: also called Fc-Abdeg-S239D/I332E variant
B3: Fc-Abdeg (other)
chain: B1 chain
notes: Isolated variant human IgG Fc region with no variable region; Produced in CHO cells, fucosylated; also called wild-type Fc-Abdeg; fucosylated Fc-Abdeg

What was measured:
[1] = biological target: T1, murine CD16-2 (Sino Biological Inc., …); experiment: ELISA on murine CD16-2, procedure similar to the hCD16a ELISA
Experimental: (§1) Specifically, a Maxisorp plate was coated with 100 ng/well of Neutravidin Biotin-binding Protein (ThermoScientific, 31000) and incubated overnight at 4° C. The following day, the plate was blocked with PBS+1% casein for 2 hours at room temperature. […] Binding to hCD16a was detected using an HRP-conjugated polyclonal goat anti-human Fc antibody (Jackson ImmunoResearch, 109-035-008) (incubation 1 hour at RT, dilution 1/50,000 in PBS+0.1% casein), followed by addition of 100 μl room temperature-equilibrated TMB (SDT-reagents #s TMB). Plates were incubated for 10 minutes prior to addition of 100 μl 0.5N H₂SO₄ and OD450 nm measurement. EC50 values were determined using GraphPad Prism software.
Using a similar experimental procedure as described above, the binding affinity for murine CD16-2 (Sino Biological Inc., 50036-M27H-B) was determined.

[2] = biological target: T2, biotinylated hCD16a (Sino Biological Inc., 10389-H27H1-B) (human, UniProt P08637 17-208, biotinylated (site not stated)); experiment: ELISA; biotinylated hCD16a captured on neutravidin plate; reference is fucosylated Fc-Abdeg
T2 construct: Purchased reagent; also called human CD16a
T2 sequence (P08637 17-208 limits assumed): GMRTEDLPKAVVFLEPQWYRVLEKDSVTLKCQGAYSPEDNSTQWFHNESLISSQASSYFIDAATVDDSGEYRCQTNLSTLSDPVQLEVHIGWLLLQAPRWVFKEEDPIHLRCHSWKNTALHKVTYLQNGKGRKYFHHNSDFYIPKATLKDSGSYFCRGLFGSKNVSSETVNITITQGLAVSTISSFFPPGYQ
Experimental: as §1

[3] = biological target: T2, biotinylated hCD16a (Sino Biological …); experiment: ELISA; biotinylated hCD16a captured on neutravidin plate, anti-human Fc-HRP detection
Experimental: as §1

Binder | EC50 [1] [nM] | fold increase in affinity vs Fc-Abdeg [2] [fold] | EC50 [3] [nM]
B1 | 11 | > 30 | 13
B2 |  |  | 6
B3 | > 100 |  | 

Reference: patent publication US20160264669A1 (ARGEN X N V, published 2016)
